Several values for one entry are separate records, joined by “and”; a condition that tells them apart may be missing. Equal entries are not always repeated.

The source of these data is patent publication US20170306048A1 (SORRENTO THERAPEUTICS, published 2017).

For assay [1], the target named is human IgG. Nature of the assay: ELISA in Superblock buffer, OD 450 nm; partner not named on the sheet, legend paragraph 53 says 'to human IgG', ng/ml is the unit of the x axis. (In general: In an ELISA, binding on a coated surface is turned into a signal by an enzyme label.)
Assay [2] deals with T1, recombinant human STAT3 protein (human, UniProt P40763 1-770, limits assumed).
T1 construct: also called recombinant human STAT3 proteins; antigen
Nature of the assay: ELISA in Superblock buffer, OD 450 nm; antigen named neither on the sheet nor in legend paragraph 54, taken as the antibody's antigen STAT3, ng/ml is the unit of the x axis.

Assay [3] concerns the target T2, human STAT3, endogenous, in human cell lines (U251, MDA-MB-468, HeLa, MCF-10A, MCF-7, COLO205) (human, UniProt P40763 2-770).
T2 construct: whole, on cells; also called cellular antigens
The assay is described as follows: flow cytometry (HTFC) on permeabilised U251 cells, PE anti-human IgG. As to the method: After 45 minutes at room temperature, cells were washed twice and incubated with phycoerythrin (PE) conjugated-anti-human IgG for 20 minutes at room temperature in the dark. Cells were then washed and analyzed by high throughput flow cytometry (HTFC). The results are shown in FIG. 4 for assessment of antibody binding to U251 cells.
A general note: In flow cytometry, cells or beads pass a laser one at a time.

For assay [4], the target named is T1, recombinant human STAT3 protein. Nature of the assay: ELISA on recombinant human STAT3 protein, Abs 450.
Assay [5] deals with T2, human STAT3, endogenous, in human cell …. Nature of the assay: flow cytometry on PFA-fixed, methanol-permeabilised U251 cells, PE anti-human IgG, MFI (FL-2). The procedure:
(§1) Next, the binding of the candidate anti-STAT3 antibodies to cellular targets was tested in cell binding assays using MDA-MB-435 breast cancer cells and U251 cells. The cells were seeded overnight in a 96 well plate, then fixed with PFA and permeabilized with methanol. Cells were incubated with serial dilutions of the anti-STAT3 antibody candidates ST1A5, ST3G12 and ST5G12 for one hour and 30 minutes. Following incubation, the cells were washed and incubated for 30 minutes with phycoerythrin (PE) conjugated anti-human IgG. Fluorescence was measured on an Intellicyte high-throughput flow cytometry analyzer. […] Bevacizumab (Avastin), a monoclonal antibody that inhibits vascular endothelial growth factor A (VEGF-A) was used as a negative control.

For assay [6], the target named is T3, recombinant human STAT3-GST (human, UniProt P40763 1-770, limits assumed).
T3 construct: Analyte in the Biacore assay; not shown: GST (glutathione S-transferase) tag
Nature of the assay: SPR (Biacore T200), antibody captured on anti-human Fc, STAT3-GST as analyte, 1:1 model. The procedure:
Anti-human Fc antibody (GE, BR-1008-39) was immobilized on a CM5 sensor chip to approximately 1000 RU using standard NHS/EDC coupling methodology. Antibodies (approximately 10 ug/ml) were captured for 60 seconds at a flow rate of 10 ul/min Recombinant human STAT3-GST was serially diluted 2-fold into running buffer (HBS-EP+, starting from […]). All measurements were conducted at a flow rate of 30 ul/min Surfaces were regenerated with 3M MgCl₂ (from human antibody kit) for 60 seconds. A 1:1 (Langmuir) binding model was used to fit the data.
(In general: In SPR one partner is held on a chip, and binding of the other changes the refractive index at the surface.)

The target in assay [7] is T1, recombinant human STAT3 protein. The assay is described as follows: STAT3 binding ELISA, Hu-IgG-Fab detection (title on the sheet), OD 450 nm, ng/ml is the unit of the x axis.
In assay [8] the target is T4, mouse STAT3, endogenous, in mouse cell lines CT-26 and MC-38 (mouse, UniProt P42227 2-770).
T4 construct: whole, on cells; Intracellular protein
The assay is described as follows: flow cytometry on fixed, permeabilised mouse CT-26 and MC-38 cells, PE anti-human IgG; antibody concentration not given.

The target of assay [9] is T1, recombinant human STAT3 protein. The assay is described as follows: ELISA on recombinant human STAT3 protein, absorbance at 450.
The target in assay [10] is human IgG. The assay is described as follows: ELISA in Superblock buffer, OD 450 nm; partner not named on the sheet, legend paragraph 53 says 'to human IgG'; column taken as the curve ST3G12-PS superblock; unit from the x axis.
Assay [11] addresses T1, recombinant human STAT3 protein. Nature of the assay: ELISA in Superblock buffer, OD 450 nm; antigen named neither on the sheet nor in legend paragraph 54, taken as the antibody's antigen STAT3; unit from the x axis.
Assay [12] deals with T2, human STAT3, endogenous, in human cell …. Nature of the assay: flow cytometry on PFA-fixed, methanol-permeabilised MDA-MB-468 cells, PE anti-human IgG, MFI (FL-2). As to the method:
as §1

T2 sequence (P40763 2-770): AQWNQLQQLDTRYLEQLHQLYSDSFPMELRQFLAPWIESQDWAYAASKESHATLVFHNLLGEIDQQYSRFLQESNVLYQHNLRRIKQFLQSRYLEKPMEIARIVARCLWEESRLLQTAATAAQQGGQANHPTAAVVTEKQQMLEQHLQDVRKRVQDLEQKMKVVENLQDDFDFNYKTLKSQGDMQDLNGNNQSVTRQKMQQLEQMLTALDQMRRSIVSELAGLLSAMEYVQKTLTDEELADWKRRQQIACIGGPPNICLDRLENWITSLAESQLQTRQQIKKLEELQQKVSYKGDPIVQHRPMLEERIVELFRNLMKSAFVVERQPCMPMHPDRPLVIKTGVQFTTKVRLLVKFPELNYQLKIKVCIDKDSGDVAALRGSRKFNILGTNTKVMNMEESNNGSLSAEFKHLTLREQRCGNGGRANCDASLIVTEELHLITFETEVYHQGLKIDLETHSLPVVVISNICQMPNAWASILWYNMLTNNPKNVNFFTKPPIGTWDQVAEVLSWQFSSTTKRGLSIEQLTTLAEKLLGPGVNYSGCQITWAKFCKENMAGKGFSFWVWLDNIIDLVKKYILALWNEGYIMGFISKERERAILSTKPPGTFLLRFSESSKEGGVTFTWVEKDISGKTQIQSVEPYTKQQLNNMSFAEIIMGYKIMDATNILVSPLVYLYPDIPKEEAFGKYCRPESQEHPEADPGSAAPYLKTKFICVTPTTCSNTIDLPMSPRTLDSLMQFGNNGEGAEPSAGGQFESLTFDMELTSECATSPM
T1 sequence (P40763 whole entry): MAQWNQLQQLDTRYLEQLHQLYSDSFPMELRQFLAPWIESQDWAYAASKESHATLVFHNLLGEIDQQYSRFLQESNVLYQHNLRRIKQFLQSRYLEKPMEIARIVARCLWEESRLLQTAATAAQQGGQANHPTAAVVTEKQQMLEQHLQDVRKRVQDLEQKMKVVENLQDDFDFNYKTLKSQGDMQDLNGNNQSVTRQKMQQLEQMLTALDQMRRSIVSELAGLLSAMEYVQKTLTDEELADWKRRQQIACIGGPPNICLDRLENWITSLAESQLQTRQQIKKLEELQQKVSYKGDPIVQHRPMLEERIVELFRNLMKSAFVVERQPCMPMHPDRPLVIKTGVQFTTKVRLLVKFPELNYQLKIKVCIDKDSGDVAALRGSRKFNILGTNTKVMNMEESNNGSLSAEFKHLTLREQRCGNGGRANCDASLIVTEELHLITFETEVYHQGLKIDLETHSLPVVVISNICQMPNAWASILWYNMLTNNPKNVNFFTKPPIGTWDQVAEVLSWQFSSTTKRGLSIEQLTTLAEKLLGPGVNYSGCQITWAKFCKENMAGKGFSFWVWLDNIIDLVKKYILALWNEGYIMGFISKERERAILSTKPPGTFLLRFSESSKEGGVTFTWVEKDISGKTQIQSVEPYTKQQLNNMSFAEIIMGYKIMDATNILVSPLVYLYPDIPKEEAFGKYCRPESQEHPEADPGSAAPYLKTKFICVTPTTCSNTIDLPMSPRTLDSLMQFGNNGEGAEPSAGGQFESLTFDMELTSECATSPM
T3 sequence (P40763 whole entry): as above
T4 sequence (P42227 2-770): as the sequence (P40763 2-770) above, with E759D counted along it

B1: anti-STAT3 antibody ST3G12 (naked / unmodified) (antibody, V domains shown)
VH: QVQLVQSGAEVKKPGASVKVSCKASGYTFTSYYMHWVRQAPGQGLEWMGIINPSGGSTSYAQKFQGRVTMTRDTSTSTVYMELSSLRSEDTAVYYCARSDYVHSFDIWGQGTMVTVSS
VL: QPVLTQPPSASALLGASIKLTCTLSSEHSTYTVEWYQQRPGRSPQYIMNVKSDGSYNKGDGIPDRFMGSSSGADRYLTFSNLQSDDEAEYHCGESHRIDGQVGVVFGGGTKLTVL
notes: Fully human monoclonal antibody, detected with anti-human IgG and captured with anti-human Fc; also called Ab#1; ST3G12-unmodified
One may read the EC50 as the concentration at which the effect is half-maximal. For orientation: EC50 (read off the curve) means the concentration needed to bring the measured effect to its halfway point. What is called Kd is the equilibrium constant for the complex coming apart. Usually koff stands for a measure of how fast the partners let go of each other. Broadly, the kon is the second-order rate constant of association. As for B1, the concentration giving a half-maximal response (EC50) was found to be 0.122 µg/mL in [1], 0.0257 µg/mL in [2] and 0.155 µg/mL in assay [7]. The concentration giving a half-maximal response (EC50 (read off the curve)) in assay [3] is around 10 nM; in assay [4] it was around 0.06 µg/mL; in [5], around 4 nM; in assay [9] it was around 7 ng/mL. Besides, the equilibrium dissociation constant (Kd) in assay [6] came to 5.39 nM. Further, the koff in [6] was 0.000322 s⁻¹. Besides, the on-rate constant (kon) in [6] came out at 59700 M⁻¹ s⁻¹. The binding result in [8] is “binds”.

B2: ST3G12-PS antibody conjugate (compound 901) (antibody, V domains shown)
VH: B1 VH
VL: B1 VL
notes: also called PS-ST3G12; Anti-STAT3-PS
For B2, the EC50 came out at 0.186 µg/mL in assay [10], 0.0643 µg/mL in assay [11] and 0.153 µg/mL in assay [7]. The 50% effective concentration (EC50 (read off the curve)) in [4] was ~0.06 µg/mL and ~0.1 µg/mL; in assay [9], around 7 ng/mL. Further, in assay [6], the equilibrium dissociation constant (Kd) was determined as 0.222 nM. In addition, the off-rate (koff) in assay [6] was 0.00011 s⁻¹. In [6], the on-rate (kon) is 494000 M⁻¹ s⁻¹.

B3: anti-STAT3 antibody ST1A5 (antibody, V domains shown)
VH: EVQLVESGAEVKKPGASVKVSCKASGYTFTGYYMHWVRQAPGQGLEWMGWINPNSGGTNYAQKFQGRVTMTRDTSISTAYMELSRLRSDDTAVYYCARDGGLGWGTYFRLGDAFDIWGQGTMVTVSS
VL: QSVLTQPPSVSKGLRQTATLTCTGNSNNVGNEGAAWLQQHQGHPPKLLSYRNFNRPSGISERFSASRSGNTASLTITGLQPEDEADYYCSAWDSSLSAWVFGGGTKLTVL
notes: Fully human monoclonal antibody detected with anti-human IgG; also called Ab#2
B3: in assay [12], the concentration for a half-maximal effect (EC50 (read off the curve)) was around 5 nM.
